From the supplement of paper PMC7877785
± gives the uncertainty stated by the source.

Assay: self-splicing fitness, log relative to wild type (ln ratio); higher = more splicing; Tetrahymena group I intron in knt gene, E. coli kanamycin selection, DiMSum; sequences stand for … in CUCUCU…GGAGGGAAAAGUUAUCAGGCAUGCACCUGGUAGCUAGUCUUUAAACCAAUAGAUUGCAUCGGUUUAAAAGGCAAGACCGUCAAAUUGCGGGAAAGGGGUCAACAGCCGUUCAGUACCAAGUCUCAGGGGAAACUUUGAGAUGGCCUUGCAAAGGGUAUGGUAAUAAGCUGACGGACAUGGUCCUAACCACGCAGCCAAGUCCUAAGUCAACAGAUCUUCUGUUGAUAUGGAUGCAGUUCACAGACUAAAUGUCGGUCGGGGAAGAUGUAUUCUUCUCAUAAGAUAUAGUCGGACCUCUCCUUAAUGGGAGCUAGCGGAUGAAGUGAUGCAACACUGGAGCCGCUGGGAACUAAUUUGUAUGCGAAAGUAUAUUGAUUAGUUUUGGAGUACUCGUGGUCG
Method in brief: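 A randomised library covering all eight P1ex-region intron nucleotides was built with the intron in the knt kanamycin-resistance gene on pET-22b(+) and held in E. coli BL21(DE3). Cells were grown overnight at 37°C or 30°C on LB agar, with or without 25 μg/mL kanamycin, plus 100 μg/mL carbenicillin, 50 μM IPTG and 0.2% rhamnose, and pooled colonies were amplicon-sequenced on an Illumina HiSeq 2500. DiMSum fitness is the error-weighted combination of wild-type-normalised replicate fold changes, kanamycin versus none.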

Sequence | self-splicing fitness (ln) (37 °C) | self-splicing fitness (ln) (30 °C)
UGAGAGCAAUAUUACGUUAC | -1.79 ± 0.3 | 
UGAGAGCAAUAUUACGUUCA | -0.794 ± 0.12 | -0.924 ± 0.12
UGAGAGCAAUAUUACGUUUA |  | -3.46 ± 0.39
UGAUAGCAAUAUUACGACGG | 0.124 ± 0.18 | -1.4 ± 0.19
UGAUAGCAAUAUUACGACGU | -1.17 ± 0.37 | -2.71 ± 0.24
UGAUAGCAAUAUUACGAGCU | -0.828 ± 0.17 | -1.44 ± 0.15
UGAUAGCAAUAUUACGAUCU | 0.105 ± 0.16 | 0.499 ± 0.12
UGAUAGCAAUAUUACGAUGA | -0.791 ± 0.12 | -0.925 ± 0.15
UGAUAGCAAUAUUACGCCAG | -0.994 ± 0.49 | -1.59 ± 0.23
UGAUAGCAAUAUUACGCCGA | -1.28 ± 0.18 | -2.91 ± 0.32
UGAUAGCAAUAUUACGCGCC | 0.00337 ± 0.21 | -1.82 ± 0.36
UGAUAGCAAUAUUACGCGUA | -0.96 ± 0.13 | -1.74 ± 0.13
UGAUAGCAAUAUUACGGAAG | -1.64 ± 0.21 | -1.99 ± 0.14
UGAUAGCAAUAUUACGGGGA | -1.8 ± 0.26 | -3.16 ± 0.39
UGAUAGCAAUAUUACGGGUA | -1.81 ± 0.14 | -1.74 ± 0.12
UGAUAGCAAUAUUACGGUCG | -0.477 ± 0.1 | -0.332 ± 0.098
UGAUAGCAAUAUUACGUAUG | -0.567 ± 0.16 | -1.1 ± 0.16
UGAUAGCAAUAUUACGUUGA | -1.91 ± 0.14 | -3.42 ± 0.19
UGAUAGCAAUAUUACGUUGU | -2.98 ± 0.21 | -4.45 ± 0.29
UGCAAGCAAUAUUACGAAAA | -1.64 ± 0.17 | -2.32 ± 0.28

Sequence | self-splicing fitness (ln) (37 °C) | self-splicing fitness (ln) (30 °C)
UGCAAGCAAUAUUACGAAGC | -1.87 ± 0.4 | 
UGCAAGCAAUAUUACGACUC | -1.56 ± 0.17 | -2.66 ± 0.18
UGCAAGCAAUAUUACGAGAC | -2.05 ± 0.34 | -4.03 ± 0.46
UGCAAGCAAUAUUACGAGCA | -1.39 ± 0.12 | -2.28 ± 0.15
UGCAAGCAAUAUUACGAGGA | -0.992 ± 0.14 | -3.28 ± 0.26
UGCAAGCAAUAUUACGAUCC | -0.955 ± 0.2 | -1.21 ± 0.14
UGCAAGCAAUAUUACGAUCU | -0.822 ± 0.1 | -0.477 ± 0.091
UGCAAGCAAUAUUACGAUGC |  | -3.55 ± 0.3
UGCAAGCAAUAUUACGCAGA | -1.75 ± 0.15 | -1.92 ± 0.16
UGCAAGCAAUAUUACGCCAC | -3.58 ± 0.42 | 
UGCAAGCAAUAUUACGCCAG | -1.9 ± 0.26 | -2.88 ± 0.19
UGCAAGCAAUAUUACGCCUA | 0.0781 ± 0.075 | 0.231 ± 0.073
UGCAAGCAAUAUUACGCGAC | -2.65 ± 0.23 | -3.46 ± 0.19
UGCAAGCAAUAUUACGCGCG | -0.733 ± 0.17 | -1.84 ± 0.13
UGCAAGCAAUAUUACGCUGC | -2.4 ± 0.3 | -3.62 ± 0.29
UGCAAGCAAUAUUACGCUUU | -1.85 ± 0.2 | -3.45 ± 0.21
UGCAAGCAAUAUUACGGCAA | -0.447 ± 0.12 | 0.111 ± 0.12
UGCAAGCAAUAUUACGGCAC | -3.28 ± 0.33 | -3.59 ± 0.4
UGCAAGCAAUAUUACGGUCU | 0.283 ± 0.082 | -0.647 ± 0.07
UGCAAGCAAUAUUACGUAGU | -2.42 ± 0.17 | -3.83 ± 0.18
